Results as given in US20250250357A1 (NANJING ZAIMING PHARMACEUTICAL, published 2025).
Like-named read-outs stand apart in the source and are kept apart here.

T1: monkey MSLN full-length protein (NCBI: XP_028696439.1) expressed on HEK293T-monkey MSLN cells (monkey)
T1 construct: Whole encoded precursor
T1 chain: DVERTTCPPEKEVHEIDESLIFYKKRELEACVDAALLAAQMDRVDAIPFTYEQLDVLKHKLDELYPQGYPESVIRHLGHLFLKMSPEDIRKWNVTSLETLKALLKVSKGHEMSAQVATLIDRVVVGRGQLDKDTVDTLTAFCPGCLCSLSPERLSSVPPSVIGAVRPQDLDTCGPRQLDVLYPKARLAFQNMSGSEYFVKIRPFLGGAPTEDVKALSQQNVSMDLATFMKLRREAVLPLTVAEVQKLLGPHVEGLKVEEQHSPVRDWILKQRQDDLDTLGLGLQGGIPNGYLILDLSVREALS


Tests used:
[1] = target: T2, human MSLN-FL-his protein (human, UniProt Q13421 296-580); assay: competitive ELISA; row F8-36.12; also: test concentration or dose not given here
T2 construct: made in HEK293E cells, purified on nickel column; also called hMSLN-FL-his; human MSLN full-length protein; not shown: His tag
T2 sequence (Q13421 other isoform, or with tags, fused parts or gaps): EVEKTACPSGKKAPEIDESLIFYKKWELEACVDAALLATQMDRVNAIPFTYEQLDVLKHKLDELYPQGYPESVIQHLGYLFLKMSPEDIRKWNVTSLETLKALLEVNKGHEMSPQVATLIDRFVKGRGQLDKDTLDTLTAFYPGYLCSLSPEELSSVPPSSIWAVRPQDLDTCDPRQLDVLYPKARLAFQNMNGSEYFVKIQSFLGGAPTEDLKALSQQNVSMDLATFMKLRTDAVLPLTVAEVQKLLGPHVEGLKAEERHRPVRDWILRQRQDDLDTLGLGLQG

[2] = target: T2, human MSLN-FL-his protein; assay: competitive ELISA; row F8-9.16; also: test concentration or dose not given here
[3] = target: T3, human MSLN protein endogenously expressed on OVCAR3 tumor cells (human, UniProt Q13421 296-598); assay: FACS on OVCAR3 cells
T3 construct: whole, on cells; endogenous expression on a tumor cell line; also called human mesothelin
T3 sequence (Q13421 other isoform, or with tags, fused parts or gaps): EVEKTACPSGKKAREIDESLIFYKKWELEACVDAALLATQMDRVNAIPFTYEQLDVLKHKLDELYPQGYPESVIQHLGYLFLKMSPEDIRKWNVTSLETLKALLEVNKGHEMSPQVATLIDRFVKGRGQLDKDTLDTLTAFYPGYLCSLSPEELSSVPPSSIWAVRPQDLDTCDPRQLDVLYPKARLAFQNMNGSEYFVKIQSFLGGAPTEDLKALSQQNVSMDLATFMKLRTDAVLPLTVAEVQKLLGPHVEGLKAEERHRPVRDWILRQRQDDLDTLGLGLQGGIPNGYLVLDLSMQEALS

[4] = target: T2, human MSLN-FL-his protein; assay: competitive ELISA; row F8-8.22; also: test concentration or dose not given here
[5] = target: T2, human MSLN-FL-his protein; assay: competitive ELISA; row Tab142; also: test concentration or dose not given here
[6] = target: T2, human MSLN-FL-his protein; assay: competitive ELISA; row F8-28.23; also: test concentration or dose not given here
[7] = target: T2, human MSLN-FL-his protein; assay: competitive ELISA; row F8-24.14; also: test concentration or dose not given here
[8] = target: T2, human MSLN-FL-his protein; assay: competitive ELISA; row F8-32.3; also: test concentration or dose not given here
[9] = target: T2, human MSLN-FL-his protein; assay: competitive ELISA; row F8-29.1; also: test concentration or dose not given here
[10] = target: T2, human MSLN-FL-his protein; assay: SPR (Biacore), antibody captured on Protein A chip;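 also: flow cell at 25 °C, antigen injected for 240 s at five concentrations from 200 nM downward, dissociation followed up to 600 s, double-referenced, fitted with Langmuir 1:1 model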
[11] = target: T4, human MSLN-R3 protein expressed on HEK293T cells (HEK293T-hMSLN-R3) (human, UniProt Q13421 487-606); assay: FACS on HEK293T-hMSLN-R3 cells;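 also: chimeric antibodies incubated with cells on ice for 2 h, binding read by flow cytometry as mean fluorescence intensity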
T4 construct: C-terminal limit uncertain
T4 sequence (Q13421 495-614): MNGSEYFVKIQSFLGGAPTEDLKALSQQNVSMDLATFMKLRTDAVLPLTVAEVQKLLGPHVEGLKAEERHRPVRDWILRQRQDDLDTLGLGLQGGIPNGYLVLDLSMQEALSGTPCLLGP
Experimental: (§1) The desired cells were expanded to the logarithmic growth phase in a T-75 cell culture flask. […] After the cells from the previous step were subjected to cell counting, the cell pellet was resuspended to 2×10⁶ cells/mL in a blocking buffer of [PBS+2% (w/w) BSA] and added into a 96-well FACS reaction plate at 50 μL/well. A chimeric antibody (a sample to be tested) was added at 50 μL/well, and the plate was incubated on ice for 2 h. […] After the plate was centrifuged and washed 5 times with a PBST buffer, assay and analysis were performed by FACS (FACS CantoII, purchased from BD). Data analysis was performed by software (Flowjo) to obtain the mean fluorescence intensity (MFI) of the cells.

[12] = target: T2, human MSLN-FL-his protein; assay: competitive ELISA; row Tab021; also: test concentration or dose not given here
[13] = target: T2, human MSLN-FL-his protein; assay: competitive ELISA; row F8-33.12; also: test concentration or dose not given here
[14] = target: T2, human MSLN-FL-his protein; assay: competitive ELISA; row F8-22.23; also: test concentration or dose not given here
[15] = target: T5, human MSLN full-length protein (NCBI: AAH09272.1) expressed on HEK293T-hMSLN-B8 cells (human, UniProt Q13421 296-598); assay: FACS on HEK293T-hMSLN-B8 cells
T5 construct: Whole encoded precursor
T5 sequence (Q13421 other isoform, or with tags, fused parts or gaps limits assumed): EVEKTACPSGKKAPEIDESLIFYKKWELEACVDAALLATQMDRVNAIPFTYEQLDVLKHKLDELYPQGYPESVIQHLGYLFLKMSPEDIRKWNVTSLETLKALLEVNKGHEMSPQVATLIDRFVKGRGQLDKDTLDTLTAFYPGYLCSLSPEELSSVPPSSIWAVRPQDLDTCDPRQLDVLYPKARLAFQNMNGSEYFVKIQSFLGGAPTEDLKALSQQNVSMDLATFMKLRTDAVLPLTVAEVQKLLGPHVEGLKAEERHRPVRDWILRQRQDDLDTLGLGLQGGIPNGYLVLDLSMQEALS
Experimental: as §1

[16] = target: T6, human MSLN protein endogenously expressed on OVCAR3 tumor cells (human, UniProt Q13421 296-598); assay: FACS on OVCAR3 cells
T6 construct: whole, on cells; Endogenous target on OVCAR3 cells; kept apart from the recombinant full-length construct; also called mesothelin
T6 sequence (Q13421 other isoform, or with tags, fused parts or gaps): as the sequence (Q13421 other isoform, or with tags, fused parts or gaps limits assumed) above, with P14R counted along it
Experimental: as §1

[17] = target: T1, monkey MSLN full-length protein (NCBI: …); assay: FACS on HEK293T-monkey MSLN cells
Experimental: as §1

[18] = target: T7, human MSLN-R3 protein (Met487-Ser606 of NCBI AAH09272.1) expressed on HEK293T-hMSLN-R3 cells (human, UniProt Q13421 487-606); assay: FACS on HEK293T-hMSLN-R3 cells
T7 construct: also called Region3
T7 sequence (Q13421 495-614): as the sequence (Q13421 495-614) above
Experimental: as §1

Row | Binder | competition rate [1] [%] | competition rate [2] [%] | EC50 [3] [nM] | Maximum mean fluorescence intensity [3] | competition rate [4] [%] | competition rate [5] [%] | competition rate [6] [%] | competition rate [7] [%] | competition rate [8] [%] | competition rate [9] [%] | Kd [10] [nM] | koff [10] [s⁻¹] | kon [10] [M⁻¹ s⁻¹] | Maximum mean fluorescence intensity [11] | binding result [11] | competition rate [12] [%] | competition rate [13] [%] | competition rate [14] [%] | EC50 [15] [nM] | Maximum mean fluorescence intensity [15] | further results
1 | S009-F8-29.1 (antibody, human IgG1, kappa, V domains shown, human-murine chimeric antibody, human IgG1/kappa constant regions) VH: QVQLQQSGAELARPGASVKMSCKASGYTFISYTMHWVKQRPGQGLEWIGYINPSSGYTKYNQKFKDKATLTADKSSSTAYMQLNSLTSEDSAVYYCARYYSNPDYYAMDYWGQGTSVTVSS VL: QIVLTQSPAIMSASPGEKVTITCSASSSVSYMHWFQQKPGTSPKLWIYSTSNLASGVPARFSGSGSGTSYSLTISRMEAEDAATYYCQQRSSYPLTFGGGTKLELKR | -146 | -37.3 | 33.4 | 5430 | 88.4 | 36.8 | 96 | 89.8 | 75.8 | 62.2 | 27.4 | 0.0199 | 728000 | 69 | no binding | 11.1 | 47.3 | 88.5 |  |  | 
2 | S009-F8-32.3 (antibody, human IgG1, kappa, V domains shown, human-murine chimeric antibody, human IgG1/kappa constant regions) VH: QVQLKESGPGLVAPSQSLSITCTVSGFSLSSYAISWVRQPPGKGLEWLGVIWTGGGTNYNSALKSRLSISKDNSKSQVFLKMNSLQTDDTARFYCARNNYGRLDYAMDYWGQGTSVTVSS VL: DVVMTQTPLSLPVSLGDQASISCRSSQSLVHGNGNTYLHWYLQKPGQSPKLLIYKVSNRFSGVPDRFSGSGSGTDFTLKISRVETEDLGVYFCSQSTHVPFTFGSGTKLEIKR | -164 | -113 | 14.7 | 8270 | 94.4 | 40.6 | 102 | 95 | 79.3 | 65.9 | 6.5 | 0.00331 | 510000 | 50 | no binding | 10.9 | 56.5 | 96.6 |  |  | 
3 | S009-F1.7.14 (antibody, human IgG1, kappa, human-murine chimeric antibody, human IgG1/kappa constant regions) heavy: not shown light: QIVLTQSPAIMSASPGEKVTISCSASSSVSYMYWYQQKPGSSPKPWISRTSNLASGVPARFSGSGSGTSYSLTISSMEAEDAATYYCQQYHSYPPTLGAGTKLELKRTVAAPSVFIFPPSDEQLKSGTASVVCLLNNFYPREAKVQWKVDNALQSGNSQESVTEQDSKDSTYSLSSTLTLSKADYEKHKVYACEVTHQGLSSPVTKSFNRGEC |  |  |  |  |  |  |  |  |  |  |  |  |  |  |  |  |  |  | 3.4 | 70300 | Maximum mean fluorescence intensity [16]: 2250; EC50 [17]: 5.69 nM; Maximum mean fluorescence intensity [17]: 47500; Maximum mean fluorescence intensity [18]: 239; binding result [18]: no binding
4 | S009-F8-8.22 (antibody, human IgG1, kappa, V domains shown, human-murine chimeric antibody, human IgG1/kappa constant regions) VH: EVQLQQSGPELVKPGASVKMSCKASGYTFTDYIIHWVKQSHGKSLEWIAYIFPNNGGTGYNQKFRGKATLTVNKSSSTAYMELRSLTSEDSAVYYCARWRLRQYFDVWGTGTTVTVSS VL: DIVMTQSQKFMSTIVGDRVSITCKASQNVGTAVAWYQQKPGQSPKLLIYSASNRYTGVPDRFTGSGSGTDFTLTISNMQSEDLADYFCQQYSSYPLTFGGGTKLEIKR | -138 | -52.1 | 9.9 | 4270 | 92.2 | 33.8 | 97.4 | 91.1 | 77.7 | 59.2 | 12.8 | 0.00937 | 732000 | 122 | no binding | 12.6 | 53.5 | 96.1 |  |  | 
5 | S009-F8-24.14 (antibody, human IgG1, kappa, V domains shown, human-murine chimeric antibody, human IgG1/kappa constant regions) VH: EFQLQQSGPELVKPGASVKISCKASGYSFTDYNMNWVKLSNGKSLEWIGVIIPNYGTSSYNQKFKGKATLTVDQSSSTAYMQLNSLTSEDSAVYYCARWDNYYGSSLDYWGQGTTLTVSS VL: DIVMTQSQKFMSTTVGDRVSITCKASQNVGTAVAWYQQKPGQSPKLLIYSASNRYTGVPDRFTGSGSGTDFILTISNMQSEDLADYFCQQYSSYPLTFGAGTKLELKR | -142 | -65.5 | 11.5 | 4700 | 74.5 | 22.9 | 95 | 77 | 57.6 | 43.7 | 9.13 | 0.00501 | 549000 | 82 | no binding | 5.3 | 27.8 | 80.3 |  |  | 
6 | S009-F1.2.12 (antibody, human IgG1, kappa, V domains shown, human-murine chimeric antibody, human IgG1/kappa constant regions) VH: QVQLKQTGPGLVQPSQSLSITCTVSGFSLTNYAVHWVRQSPGKGLEWLGVIWSGGATDYNTVFISRLSISKDNSKSQVFFKVNSLQVDDTAIYYCARTGSGYAMDYWGQGTSVTVSS VL: DIVLTQSPATLSVTPGDRVSLSCRTSHNVNTYLHWYQQKSHESPRLLIKYASQSISEIPSRFSGSGSGTNFTLSINSVETEDFGMYFCHQTNRWPLTFGAGTKLELKR |  |  |  |  |  |  |  |  |  |  |  |  |  |  |  |  |  |  | ~0.86 | 87200 | EC50 [16]: 1.87 nM; Maximum mean fluorescence intensity [16]: 9620; EC50 [17]: 1.39 nM; Maximum mean fluorescence intensity [17]: 29200; Maximum mean fluorescence intensity [18]: 239; binding result [18]: no binding
7 | S009-F1.35.24 (antibody, human IgG1, kappa, V domains shown, human-murine chimeric antibody, human IgG1/kappa constant regions) VH: EVQLQQSEPELVKPGASVRISCKASGYSFTDYYMHWVKQSPENRLEWIGEINPSTGGTSYNPKFKDKATLTVDKSSSTAYMQLKSLTSEESAVYYCTRYHYYGSSSYVMDYWGQGTSVTVSS VL: QIVLTQSPAILSASPGERVTMTCSASSSVYHMHWFQQKSGTSPKRWVYDTSKLASGVPARFSGSGSGTSYSLTISSMEAEDAATYYCQHWRTNPLTFGAGTKLELKR |  |  |  |  |  |  |  |  |  |  |  |  |  |  |  |  |  |  | 2.93 | 109000 | EC50 [16]: 2.08 nM; Maximum mean fluorescence intensity [16]: 10500; EC50 [17]: 4.75 nM; Maximum mean fluorescence intensity [17]: 52100; Maximum mean fluorescence intensity [18]: 680; binding result [18]: no binding
8 | S009-F8-36.12 (antibody, human IgG1, kappa, V domains shown, human-murine chimeric antibody, human IgG1/kappa constant regions) VH: EVQLQQSGPELVKPGASVKISCKASGYTFTDYYMNWVKQSHGKSLEWIGDINPNNGGTSYNQKFKGKATLTVDKSSSTAYMELRSLTSEDSAVYYCASWGYGSSSRGYFDYWGQGTTLTVSS VL: QIVLSQSPAILSASPGEKVTMTCRASSSVSYMHWYQQKPGSSPKPWIYATSNLASGVPARFSGSGSGTSYSLTISRVEAEDAATYYCQQWSSNPWTFGGGTKLEIKR | 61.5 | -47.7 | 15.2 | 2510 | 5.9 | 17.4 | -10.7 | 10.3 | 9.8 | 9.4 | 103 | 0.0122 | 118000 | 7970 |  | 6.4 | 8.3 | -3.1 |  |  | EC50 [11]: 11 nM
